Test results from paper PMC5588734, “In vitro oxidative decarboxylation of free fatty acids to terminal alkenes by two new P450 peroxygenases” (Biotechnology for Biofuels, 2017).

Substrate: CCCCCCCCCCCC(=O)O
Experiment: initial rates of substrate consumption by GC, Hill fit
Format: biochemical, Alicyclobacillus acidocaldarius
Conditions: excess H2O2, pH 7.4, 28 °C, Hill n 2.1 ± 0.8
Text: initial rates of substrate consumption by GC, Hill fit on CYP-Aa162

B1: CYP-Aa162 (Alicyclobacillus acidocaldarius LAA1) (protein)
chain: MNQCIPRDRTFDSSLALIKEGYLFIKNRVDQYQSDIFEARLLLENVVCMHGAEAAKLFYNTELFQRQGALPKRVQKTLFGENAIQTLDGTAHLHRKQLFLSLLTPDQEKSLATLATTQWRECAKVWENADRVVLFEEAKRMLCRIACQWTGVPLDESEVSKRADDFGAMVDAFGAVGPRHWKGRRARARAEAWLRQMIDEIRIGLRSVDEHTPLHVVAFWRDVNGNLLDAQMVAIELINLLRPIVAISTFITFSALALHEHPTWRDRLKARNEADIEMFVQEVRRYYPFAPFLGARVKKDFVWRGYEFKRGTLVLLDVYGTHHDARLWDSPNEFRPERFMRKTVGPFDLIPQGGGDSHTGHRCPGEGATIEIMKASVDFLVNQIDFEVPAQDLSYRLDVMPTLPKSGFVLTHVHRKFIASPTIATPNGSEALPSEV
  K0.5: 93.1 ± 37.7 µM
  kcat: 0.768 ± 0.285 s⁻¹
  kcat/Km: 8330 M⁻¹ s⁻¹
